Laboratory results reported in IntAct's records for PubMed 31515488.

B1: Inactive peptidyl-prolyl cis-trans isomerase FKBP6 (Homo sapiens), O75344 (parent)
chain: MGGSALNQGVLEGDDAPGQSLYERLSQRMLDISGDRGVLKDVIREGAGDLVAPDASVLVKYSGYLEHMDRPFDSNYFRKTPRLMKLGEDITLWGMELGLLSMRRGELARFLFKPNYAYGTLGCPPLIPPNTTVLFEIELLDFLDCAESDKFCALSAEQQDQFPLQKVLKVAATEREFGNYLFRQNRFYDAKVRYKRALLLLRRRSAPPEEQHLVEAAKLPVLLNLSFTYLKLDRPTIALCYGEQALIIDQKNAKALFRCGQACLLLTEYQKARDFLVRAQKEQPFNHDINNELKKLASCYRDYVDKEKEMWHRMFAPCGDGSTAGES
partner: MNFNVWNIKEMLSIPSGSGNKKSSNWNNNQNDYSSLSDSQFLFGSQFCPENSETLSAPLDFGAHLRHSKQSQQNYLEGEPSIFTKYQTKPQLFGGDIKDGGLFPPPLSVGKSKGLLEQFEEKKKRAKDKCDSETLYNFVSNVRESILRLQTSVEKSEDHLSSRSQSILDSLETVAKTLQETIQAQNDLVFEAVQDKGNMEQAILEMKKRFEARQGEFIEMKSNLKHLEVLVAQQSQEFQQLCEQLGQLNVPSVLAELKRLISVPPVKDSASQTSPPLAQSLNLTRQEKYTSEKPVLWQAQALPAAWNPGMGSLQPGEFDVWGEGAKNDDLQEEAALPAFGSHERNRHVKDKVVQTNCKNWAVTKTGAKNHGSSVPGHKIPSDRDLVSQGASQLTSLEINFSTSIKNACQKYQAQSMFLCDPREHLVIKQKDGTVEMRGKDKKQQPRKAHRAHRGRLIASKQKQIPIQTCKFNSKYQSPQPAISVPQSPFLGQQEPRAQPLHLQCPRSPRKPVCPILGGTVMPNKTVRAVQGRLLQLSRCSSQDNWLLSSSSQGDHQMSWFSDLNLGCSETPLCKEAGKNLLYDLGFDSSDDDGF
B2: Aflatoxin B1 aldehyde reductase member 2 (Homo sapiens), O43488 (parent)
chain: MLSAASRVVSRAAVHCALRSPPPEARALAMSRPPPPRVASVLGTMEMGRRMDAPASAAAVRAFLERGHTELDTAFMYSDGQSETILGGLGLGLGGGDCRVKIATKANPWDGKSLKPDSVRSQLETSLKRLQCPQVDLFYLHAPDHGTPVEETLHACQRLHQEGKFVELGLSNYASWEVAEICTLCKSNGWILPTVYQGMYNATTRQVETELFPCLRHFGLRFYAYNPLAGGLLTGKYKYEDKDGKQPVGRFFGNSWAETYRNRFWKEHHFEAIALVEKALQAAYGASAPSVTSAALRWMYHHSQLQGAHGDAVILGMSSLEQLEQNLAATEEGPLEPAVVDAFNQAWHLVAHECPNYFR
B3: Transcription factor 12 (Homo sapiens), Q99081 (parent)
chain: MNPQQQRMAAIGTDKELSDLLDFSAMFSPPVNSGKTRPTTLGSSQFSGSGIDERGGTTSWGTSGQPSPSYDSSRGFTDSPHYSDHLNDSRLGAHEGLSPTPFMNSNLMGKTSERGSFSLYSRDTGLPGCQSSLLRQDLGLGSPAQLSSSGKPGTAYYSFSATSSRRRPLHDSAALDPLQAKKVRKVPPGLPSSVYAPSPNSDDFNRESPSYPSPKPPTSMFASTFFMQDGTHNSSDLWSSSNGMSQPGFGGILGTSTSHMSQSSSYGNLHSHDRLSYPPHSVSPTDINTSLPPMSSFHRGSTSSSPYVAASHTPPINGSDSILGTRGNAAGSSQTGDALGKALASIYSPDHTSSSFPSNPSTPVGSPSPLTGTSQWPRPGGQAPSSPSYENSLHSLQSRMEDRLDRLDDAIHVLRNHAVGPSTSLPAGHSDIHSLLGPSHNAPIGSLNSNYGGSSLVASSRSASMVGTHREDSVSLNGNHSVLSSTVTTSSTDLNHKTQENYRGGLQSQSGTVVTTEIKTENKEKDENLHEPPSSDDMKSDDESSQKDIKVSSRGRTSSTNEDEDLNPEQKIEREKERRMANNARERLRVRDINEAFKELGRMCQLHLKSEKPQTKLLILHQAVAVILSLEQQVRERNLNPKAACLKRREEEKVSAVSAEPPTTLPGTHPGLSETTNPMGHM
partner: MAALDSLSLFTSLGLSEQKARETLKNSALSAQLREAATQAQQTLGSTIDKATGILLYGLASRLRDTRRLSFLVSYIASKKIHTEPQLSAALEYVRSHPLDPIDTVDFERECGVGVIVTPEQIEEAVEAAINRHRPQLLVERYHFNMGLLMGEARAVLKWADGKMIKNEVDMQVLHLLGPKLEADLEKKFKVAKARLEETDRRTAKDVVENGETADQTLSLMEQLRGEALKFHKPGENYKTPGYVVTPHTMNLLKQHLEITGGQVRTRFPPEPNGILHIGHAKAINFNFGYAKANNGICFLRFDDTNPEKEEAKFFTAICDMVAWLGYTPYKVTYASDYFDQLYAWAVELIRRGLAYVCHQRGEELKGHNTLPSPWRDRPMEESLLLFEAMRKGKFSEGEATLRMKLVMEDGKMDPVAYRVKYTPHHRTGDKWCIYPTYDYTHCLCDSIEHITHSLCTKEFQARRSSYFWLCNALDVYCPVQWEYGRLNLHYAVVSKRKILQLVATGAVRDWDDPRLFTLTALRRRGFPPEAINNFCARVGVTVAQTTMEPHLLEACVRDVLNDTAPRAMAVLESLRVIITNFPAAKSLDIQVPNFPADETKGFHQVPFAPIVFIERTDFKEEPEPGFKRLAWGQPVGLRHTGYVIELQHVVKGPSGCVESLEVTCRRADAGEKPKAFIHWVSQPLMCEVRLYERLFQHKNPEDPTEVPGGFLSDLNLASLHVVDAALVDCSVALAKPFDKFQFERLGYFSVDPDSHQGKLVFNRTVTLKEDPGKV
B4: Transcription factor 12 (Homo sapiens), Q99081-3 (parent)
chain: MNPQQQRMAAIGTDKELSDLLDFSAMFSPPVNSGKTRPTTLGSSQFSGSGIDERGGTTSWGTSGQPSPSYDSSRGFTDSPHYSDHLNDSRLGAHEGLSPTPFMNSNLMGKTSERGSFSLYSRDTGLPGCQSSLLRQDLGLGSPAQLSSSGKPGTAYYSFSATSSRRRPLHDSAALDPLQAKKVRKVPPGLPSSVYAPSPNSDDFNRESPSYPSPKPPTSMFASTFFMQDGTHNSSDLWSSSNGMSQPGFGGILGTSTSHMSQSSSYGNLHSHDRLSYPPHSVSPTDINTSLPPMSSFHRGSTSSSPYVAASHTPPINGSDSILGTRGNAAGSSQTGDALGKALASIYSPDHTSSSFPSNPSTPVGSPSPLTGTSQWPRPGGQAPSSPSYENSLHSLKNRVEQQLHEHLQDAMSFLKDVCEQSRMEDRLDRLDDAIHVLRNHAVGPSTSLPAGHSDIHSLLGPSHNAPIGSLNSNYGGSSLVASSRSASMVGTHREDSVSLNGNHSVLSSTVTTSSTDLNHKTQENYRGGLQSQSGTVVTTEIKTENKEKDENLHEPPSSDDMKSDDESSQKDIKVSSRGRTSSTNEDEDLNPEQKIEREKERRMANNARERLRVRDINEAFKELGRMCQLHLKSEKPQTKLLILHQAVAVILSLEQQVRERNLNPKAACLKRREEEKVSAVSAEPPTTLPGTHPGLSETTNPMGHM
partner: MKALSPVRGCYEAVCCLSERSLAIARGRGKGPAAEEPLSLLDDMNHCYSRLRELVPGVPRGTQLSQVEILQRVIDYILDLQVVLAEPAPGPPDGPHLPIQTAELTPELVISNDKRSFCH

Variants of: B1
Settings: with iho1_human IHO1, Q8IYA8

Variant | effect of a mutation on the interaction
H287N | with no effect
R175Q | with no effect

Variants of: B2
Settings: with ark73_human AKR7A3, O95154
Sequence of ark73_human AKR7A3, O95154 (O95154 whole entry): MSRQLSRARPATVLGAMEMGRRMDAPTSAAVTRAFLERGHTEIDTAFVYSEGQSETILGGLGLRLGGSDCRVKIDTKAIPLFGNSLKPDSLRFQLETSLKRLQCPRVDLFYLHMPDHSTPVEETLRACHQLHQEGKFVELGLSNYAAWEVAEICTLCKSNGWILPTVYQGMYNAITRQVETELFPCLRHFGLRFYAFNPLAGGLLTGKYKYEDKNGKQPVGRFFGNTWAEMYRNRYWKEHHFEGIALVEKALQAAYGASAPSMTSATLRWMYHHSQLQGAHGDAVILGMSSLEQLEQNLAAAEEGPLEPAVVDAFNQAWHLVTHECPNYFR

Variant | effect of a mutation on the interaction
A142T | disrupting interaction strength

Variants of: B2
Settings: with cep70_human CEP70, Q8NHQ1
Sequence of cep70_human CEP70, Q8NHQ1 (Q8NHQ1 whole entry): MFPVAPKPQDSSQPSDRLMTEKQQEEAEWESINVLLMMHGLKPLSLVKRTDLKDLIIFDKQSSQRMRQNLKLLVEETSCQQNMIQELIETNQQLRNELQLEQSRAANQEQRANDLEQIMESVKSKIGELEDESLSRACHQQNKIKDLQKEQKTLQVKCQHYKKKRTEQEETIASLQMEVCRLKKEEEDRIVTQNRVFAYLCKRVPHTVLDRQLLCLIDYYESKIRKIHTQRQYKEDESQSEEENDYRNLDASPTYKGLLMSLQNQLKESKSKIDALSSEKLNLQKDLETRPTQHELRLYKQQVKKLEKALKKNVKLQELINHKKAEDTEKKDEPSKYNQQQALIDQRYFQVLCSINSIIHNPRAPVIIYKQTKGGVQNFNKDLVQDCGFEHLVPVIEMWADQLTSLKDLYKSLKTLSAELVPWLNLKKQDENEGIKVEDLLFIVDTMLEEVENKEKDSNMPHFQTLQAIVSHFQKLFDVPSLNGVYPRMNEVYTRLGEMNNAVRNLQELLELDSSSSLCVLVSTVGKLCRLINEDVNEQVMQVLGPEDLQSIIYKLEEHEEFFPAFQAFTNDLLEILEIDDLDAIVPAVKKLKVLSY

Variant | effect of a mutation on the interaction
A142T | disrupting interaction strength

Variants of: B3
Settings: with syq_human QARS1, P47897

Variant | effect of a mutation on the interaction
D565V | with no effect
L483R | with no effect
G300S | with no effect
N479S | with no effect
A458V | with no effect
I11M | with no effect

Variants of: B4
Settings: with id3_human ID3, Q02535

Variant | effect of a mutation on the interaction
A482V | with no effect
